Test system: Escherichia coli TOP10
Test: shrunken log2 fold change of peptide-encoding DNA abundance (4.5 h post-induction vs induction); higher = less antimicrobial activity (less host growth inhibition)
Details: time post-induction: 4.5 h; library: site-saturation at positions 5, 18, 19, 20
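Further: peptides expressed intracellularly from a pBAD plasmid library in pooled LB shake-flask culture, induced with 0.3% L-arabinose, DNA abundance read by NGS, three biological replicates, DESeq2 with apeglm shrinkage.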

Sequence	shrunken log2 fold change
RRIRTRPPRLPRPRPRPKCLPRP	-0.0528
RRIRMRPPRLPRPRPRPSRDPRP	0.257
RRIRMRPPRLPRPRPRPTDCPRP	-0.0353
RRIRYRPPRLPRPRPRPKRHPRP	-0.159
RRIRVRPPRLPRPRPRPCERPRP	-0.00992
RRIRGRPPRLPRPRPRPDMEPRP	0.864
RRIRERPPRLPRPRPRPPFTPRP	1.17
RRIRERPPRLPRPRPRPPVKPRP	0.0254
RRIRERPPRLPRPRPRPAVTPRP	-0.13
RRIRTRPPRLPRPRPRPSSRPRP	0.543
RRIRGRPPRLPRPRPRPKEGPRP	1.62
RRIRLRPPRLPRPRPRPTRCPRP	-0.119
RRIRSRPPRLPRPRPRPWESPRP	0.0145
RRIRRRPPRLPRPRPRPLMCPRP	-0.13
RRIRRRPPRLPRPRPRPHSYPRP	-0.187
RRIRGRPPRLPRPRPRPKMAPRP	0.0451
RRIRSRPPRLPRPRPRPWQPPRP	0.155
RRIRPRPPRLPRPRPRPMCDPRP	0.164
RRIRDRPPRLPRPRPRPWIEPRP	0.135
RRIRGRPPRLPRPRPRPAGAPRP	1.16
RRIRDRPPRLPRPRPRPILPPRP	0.0106
RRIRGRPPRLPRPRPRPACCPRP	0.875
RRIRQRPPRLPRPRPRPYRTPRP	0.0218
RRIRNRPPRLPRPRPRPAHSPRP	0.111
RRIRHRPPRLPRPRPRPNFPPRP	-0.189

Sequence	shrunken log2 fold change
RRIRERPPRLPRPRPRPGADPRP	0.146
RRIRTRPPRLPRPRPRPSLRPRP	-0.294
RRIRSRPPRLPRPRPRPRWQPRP	0.166
RRIRQRPPRLPRPRPRPGYCPRP	-0.0255
RRIRERPPRLPRPRPRPVDLPRP	-0.103
RRIRYRPPRLPRPRPRPPCVPRP	0.0199
RRIRIRPPRLPRPRPRPHTNPRP	-0.906
RRIRARPPRLPRPRPRPNPSPRP	0.262
RRIRQRPPRLPRPRPRPDLWPRP	0.514
RRIRMRPPRLPRPRPRPFHIPRP	-0.269
RRIRTRPPRLPRPRPRPSTTPRP	-0.0853
RRIRGRPPRLPRPRPRPCCHPRP	0.345
RRIRHRPPRLPRPRPRPTCLPRP	-0.0796
RRIRNRPPRLPRPRPRPYCSPRP	-0.0619
RRIRYRPPRLPRPRPRPDPFPRP	-0.206
RRIRHRPPRLPRPRPRPCFPPRP	-0.517
RRIRSRPPRLPRPRPRPGVMPRP	0.161
RRIRIRPPRLPRPRPRPISSPRP	-0.16
RRIRCRPPRLPRPRPRPYRNPRP	0.0132
RRIRSRPPRLPRPRPRPCNIPRP	-0.178
RRIRCRPPRLPRPRPRPFKMPRP	-0.854
RRIRIRPPRLPRPRPRPSARPRP	-0.067
RRIRARPPRLPRPRPRPVINPRP	-0.383
RRIRLRPPRLPRPRPRPHKCPRP	-0.0456
RRIRHRPPRLPRPRPRPMSKPRP	-0.203

Sequence	shrunken log2 fold change
RRIRNRPPRLPRPRPRPIMSPRP	-0.103
RRIRWRPPRLPRPRPRPGECPRP	0.00474
RRIRQRPPRLPRPRPRPCTQPRP	-0.0306
RRIRHRPPRLPRPRPRPVNAPRP	-0.0381
RRIRIRPPRLPRPRPRPSQTPRP	-0.0359
RRIRVRPPRLPRPRPRPMAEPRP	2.52
RRIRPRPPRLPRPRPRPVFFPRP	0.213
RRIRMRPPRLPRPRPRPFCNPRP	-0.148
RRIRGRPPRLPRPRPRPWRNPRP	0.297
RRIRHRPPRLPRPRPRPGSVPRP	-0.31
RRIRLRPPRLPRPRPRPNSQPRP	-0.32
RRIRWRPPRLPRPRPRPFKNPRP	-0.274
RRIRDRPPRLPRPRPRPAGNPRP	0.0407
RRIRLRPPRLPRPRPRPRCQPRP	0.72
RRIRPRPPRLPRPRPRPSYRPRP	-0.342
RRIRPRPPRLPRPRPRPARYPRP	0.19
RRIRERPPRLPRPRPRPPGAPRP	0.573
RRIRFRPPRLPRPRPRPHTRPRP	-0.223
RRIRNRPPRLPRPRPRPIHRPRP	0.0891
RRIRWRPPRLPRPRPRPAFDPRP	0.397
RRIRKRPPRLPRPRPRPNFEPRP	0.0868
RRIRLRPPRLPRPRPRPGLIPRP	0.045
RRIRMRPPRLPRPRPRPIEDPRP	0.224
RRIRNRPPRLPRPRPRPFYHPRP	-0.0822
RRIRSRPPRLPRPRPRPDSTPRP	-0.481

Sequence	shrunken log2 fold change
RRIRGRPPRLPRPRPRPAHFPRP	0.238
RRIRERPPRLPRPRPRPVYPPRP	-0.335
RRIRCRPPRLPRPRPRPVFLPRP	-0.429
RRIRYRPPRLPRPRPRPYIWPRP	-0.29
RRIRPRPPRLPRPRPRPGRKPRP	0.199
RRIRSRPPRLPRPRPRPAIGPRP	-0.0608
RRIRMRPPRLPRPRPRPAHMPRP	0.281
RRIRARPPRLPRPRPRPMPKPRP	0.411
RRIRRRPPRLPRPRPRPWESPRP	0.0904
RRIRGRPPRLPRPRPRPPDYPRP	0.135
RRIRPRPPRLPRPRPRPNAPPRP	0.0216
RRIRKRPPRLPRPRPRPVPNPRP	-0.00404
RRIRRRPPRLPRPRPRPWKLPRP	-0.0807
RRIRWRPPRLPRPRPRPNSAPRP	0.104
RRIRFRPPRLPRPRPRPQNRPRP	-0.536
RRIRGRPPRLPRPRPRPHAYPRP	2.11
RRIRRRPPRLPRPRPRPRAEPRP	0.572
RRIRMRPPRLPRPRPRPECIPRP	1.61
RRIRTRPPRLPRPRPRPQMPPRP	0.588
RRIRWRPPRLPRPRPRPMMTPRP	0.0544
RRIRTRPPRLPRPRPRPMYTPRP	-0.156
RRIRSRPPRLPRPRPRPDGKPRP	0.00369
RRIRVRPPRLPRPRPRPRPCPRP	0.322
RRIRVRPPRLPRPRPRPHASPRP	-0.15
RRIRQRPPRLPRPRPRPKSYPRP	-0.0861

Sequence	shrunken log2 fold change
RRIRVRPPRLPRPRPRPFPRPRP	0.0135
RRIRRRPPRLPRPRPRPLRHPRP	0.558
RRIRGRPPRLPRPRPRPKTAPRP	0.808
RRIRERPPRLPRPRPRPPFFPRP	0.0761
RRIRMRPPRLPRPRPRPMDRPRP	-0.0181
RRIRLRPPRLPRPRPRPQIMPRP	-0.444
RRIRHRPPRLPRPRPRPLAIPRP	-0.346
RRIRMRPPRLPRPRPRPYCEPRP	-0.34
RRIRNRPPRLPRPRPRPYCQPRP	-0.358
RRIRFRPPRLPRPRPRPWNEPRP	-0.173
RRIRDRPPRLPRPRPRPTSPPRP	-0.267
RRIRARPPRLPRPRPRPVFFPRP	0.448
RRIRDRPPRLPRPRPRPAEHPRP	-0.0618
RRIRRRPPRLPRPRPRPVCLPRP	0.149
RRIRQRPPRLPRPRPRPGSRPRP	0.166
RRIRQRPPRLPRPRPRPEVIPRP	-0.00663
RRIRRRPPRLPRPRPRPCIAPRP	-0.247
RRIRCRPPRLPRPRPRPHHVPRP	0.0159
RRIRARPPRLPRPRPRPVATPRP	0.982
RRIRGRPPRLPRPRPRPENTPRP	0.841
RRIRPRPPRLPRPRPRPKYAPRP	-0.102
RRIRYRPPRLPRPRPRPTSVPRP	-0.395
RRIRERPPRLPRPRPRPHCFPRP	0.0259
RRIRFRPPRLPRPRPRPHAHPRP	-0.0397
RRIRVRPPRLPRPRPRPVMLPRP	-0.0602

Sequence	shrunken log2 fold change
RRIRARPPRLPRPRPRPPVGPRP	1.18
RRIRDRPPRLPRPRPRPRTDPRP	0.0936
RRIRRRPPRLPRPRPRPFEEPRP	0.251
RRIRCRPPRLPRPRPRPDHNPRP	-0.239
RRIRPRPPRLPRPRPRPNMGPRP	-0.202
RRIRPRPPRLPRPRPRPEFCPRP	0.18
RRIRWRPPRLPRPRPRPVVHPRP	-0.102
RRIRQRPPRLPRPRPRPRDGPRP	0.666
RRIRLRPPRLPRPRPRPFTEPRP	-0.163
RRIRHRPPRLPRPRPRPPLYPRP	-0.151
RRIRFRPPRLPRPRPRPCKKPRP	-0.000348
RRIRRRPPRLPRPRPRPQRMPRP	0.13
RRIRFRPPRLPRPRPRPFRNPRP	0.0579
RRIRDRPPRLPRPRPRPTSFPRP	-0.0323
RRIRPRPPRLPRPRPRPDAFPRP	0.342
RRIRNRPPRLPRPRPRPFDMPRP	-0.0725
RRIRNRPPRLPRPRPRPRQWPRP	0.299
RRIRPRPPRLPRPRPRPEGTPRP	0.0836
RRIRDRPPRLPRPRPRPDCNPRP	0.685
RRIRSRPPRLPRPRPRPRHLPRP	-0.319
RRIRARPPRLPRPRPRPASDPRP	0.661
RRIRERPPRLPRPRPRPLENPRP	0.0225
RRIRSRPPRLPRPRPRPKICPRP	-0.0675
RRIRKRPPRLPRPRPRPNPKPRP	0.143
RRIRNRPPRLPRPRPRPVRDPRP	0.177
